Data on one molecule can be found in patent publication US20260130997A1 (BEAM THERAPEUTICS, published 2026).

Numbering of substitutions follows the chain as printed.

The target of assay [1] is T1, mutant CD45 D1-D2 protein N263S, T264A (Homo sapiens, UniProt P08575 225-394, limits assumed).
T1 chain: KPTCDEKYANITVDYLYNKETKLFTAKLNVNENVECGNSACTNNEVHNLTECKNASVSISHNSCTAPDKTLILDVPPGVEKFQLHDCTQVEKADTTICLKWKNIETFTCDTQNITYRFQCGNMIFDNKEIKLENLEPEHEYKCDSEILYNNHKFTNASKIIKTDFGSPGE
Briefly: binding to mutant CD45 D1-D2 protein relative to WT CD45 D1-D2; method not given.

Assay [2] deals with T2, mutant CD45 D1-D2 protein T264A (Homo sapiens, UniProt P08575 225-394, limits assumed).
T2 chain: T1 chain with S39N
The description is as above.

In assay [3] the target is T3, mutant CD45 D1-D2 protein I283M (Homo sapiens, UniProt P08575 225-394, limits assumed).
T3 chain: T1 chain with S39N, A40T, I59M
Described as above.

Assay [4] concerns the target T4, mutant CD45 D1-D2 protein N257G (Homo sapiens, UniProt P08575 225-394, limits assumed).
T4 chain: T1 chain with N33G, S39N, A40T
Described as above.

Assay [5] concerns the target T5, mutant CD45 D1-D2 protein E259G, N262D (Homo sapiens, UniProt P08575 225-394, limits assumed).
T5 chain: T1 chain with E35G, N38D, S39N, A40T
Described as above.

Assay [6] has as its target T6, purified CD45 protein E259G (Homo sapiens, UniProt P08575 225-394, limits assumed).
T6 construct: Purified CD45 variant of the biosensor assay
T6 chain: T1 chain with E35G, S39N, A40T
The experiment in a line: biosensor; 100 nM mAb030-9 captured with Anti-Human IgG Fc Capture (AHC), 300 nM purified CD45 protein. The procedure:
(§1) 300 nM of purified CD45 protein was contacted with the immobilized antibody. At 300 s the biosensor was placed in buffer without purified CD45 protein.

In assay [7] the target is T7, purified CD45 protein N257G (Homo sapiens, UniProt P08575 225-394, limits assumed).
T7 construct: Purified CD45 variant of the biosensor assay
T7 chain: T1 chain with N33G, S39N, A40T
The description is as above. The procedure:
as §1

The target in assay [8] is T8, purified CD45 protein E256G (Homo sapiens, UniProt P08575 225-394, limits assumed).
T8 construct: Purified CD45 variant of the biosensor assay
T8 chain: T1 chain with E32G, S39N, A40T
Described as above. The procedure:
as §1

In assay [9] the target is T9, purified CD45 protein N286D (Homo sapiens, UniProt P08575 225-394, limits assumed).
T9 construct: Purified CD45 variant of the biosensor assay
T9 chain: T1 chain with S39N, A40T, N62D
Described as above. How it is done: as §1

In assay [10] the target is T10, purified CD45 protein N267S (Homo sapiens, UniProt P08575 225-394, limits assumed).
T10 construct: Purified CD45 variant of the biosensor assay
T10 chain: T1 chain with S39N, A40T, N43S
The assay is described as above. How it is done:
as §1

The target of assay [11] is T11, purified CD45 protein N267G (Homo sapiens, UniProt P08575 225-394, limits assumed).
T11 construct: Purified CD45 variant of the biosensor assay
T11 chain: T1 chain with S39N, A40T, N43G
The description is as above. How it is done:
as §1

B1: mAb U139AGL030-9 (mAb030-9) (antibody, mouse IgG1, kappa, V domains shown)
VH: EVKLLESGGGLVQPGGSLKLSCAASGFDFSRYWMSWVRQAPGKGLEWIGEINPTSSTINFTPSLKDKVFISRDNAKNTLYLQMSKVRSEDTALYYCARGNYYRYGDAMDYWGQGTSVTVSS
VL: DIALTQSPASLAVSLGQRATISCRASKSVSTSGYSYLHWYQQKPGQPPKLLIYLASNLESGVPARFSGSGSGTDFTLNIHPVEEEDAATYYCQHSRELPFTFGSGTKLEIKR
notes: In the biosensor assay the antibody was captured with Anti-Human IgG Fc Capture (AHC); also called mAb30-9; mAb039-9
Take B1: the “% Mutant Binding” value in assay [1] is 122%; in [2] it was 112%; in [3], 12.9%; in assay [4], 1.7%; in assay [5], 2.3%. Moreover, the response in assay [6], in assay [7], in assay [8], in [9], in [10] and in [11] was less than 0.05 nm each time.
